The supplement of paper PMC10567573

B1: TPD52L1 (parent)
chain: ISKKFGDMSYSIRHSISMPAMRNS

Variants of: B1
Assay: protein stability index of a GFP-peptide fusion (GPS, HEK-293T) (PSI 1-6); higher = more stable
Settings: c terminus: a fixed tail appended
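Also: lentivirally expressed fusions sorted by FACS into six bins by GFP to DsRed ratio, PSI derived from sequencing read proportions per bin multiplied by bin number.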

| Variant | protein stability index |
| --- | --- |
| ISKKFSDMSYSIRHSISMPAMRNS [G6S] | 2.24 |
| ISKKFDDMSYSIRHSISMPAMRNS [G6D] | 2.28 |
| ISKKFRDMSYSIRHSISMPAMRNS [G6R] | 2.35 |
| ISKKFNDMSYSIRHSISMPAMRNS [G6N] | 2.15 |
| ISKKFHDMSYSIRHSISMPAMRNS [G6H] | 1.88 |
| ISKKFPDMSYSIRHSISMPAMRNS [G6P] | 2.75 |
| ISKKFYDMSYSIRHSISMPAMRNS [G6Y] | 1.86 |
| ISKKFEDMSYSIRHSISMPAMRNS [G6E] | 2.31 |
| ISKKFWDMSYSIRHSISMPAMRNS [G6W] | 2.38 |
| ISKKFKDMSYSIRHSISMPAMRNS [G6K] | 1.74 |
| ISKKFFDMSYSIRHSISMPAMRNS [G6F] | 1.97 |
| ISKKFADMSYSIRHSISMPAMRNS [G6A] | 1.65 |
| ISKKFIDMSYSIRHSISMPAMRNS [G6I] | 1.6 |
| ISKKFMDMSYSIRHSISMPAMRNS [G6M] | 2.62 |
| ISKKFCDMSYSIRHSISMPAMRNS [G6C] | 1.98 |
| ISKKFQDMSYSIRHSISMPAMRNS [G6Q] | 2.19 |
| ISKKFVDMSYSIRHSISMPAMRNS [G6V] | 2.15 |
| ISKKFLDMSYSIRHSISMPAMRNS [G6L] | 1.45 |
| ISKKFTDMSYSIRHSISMPAMRNS [G6T] | 2.62 |
| ISKKFGDISYSIRHSISMPAMRNS [M8I] | 2.13 |
| ISKKFGDESYSIRHSISMPAMRNS [M8E] | 3.18 |
| ISKKFGDQSYSIRHSISMPAMRNS [M8Q] | 2.85 |
| ISKKFGDFSYSIRHSISMPAMRNS [M8F] | 2.19 |
| ISKKFGDPSYSIRHSISMPAMRNS [M8P] | 3.46 |

| Variant | protein stability index |
| --- | --- |
| ISKKFGDWSYSIRHSISMPAMRNS [M8W] | 2.42 |
| ISKKFGDKSYSIRHSISMPAMRNS [M8K] | 2.48 |
| ISKKFGDDSYSIRHSISMPAMRNS [M8D] | 2.78 |
| ISKKFGDSSYSIRHSISMPAMRNS [M8S] | 2.4 |
| ISKKFGDGSYSIRHSISMPAMRNS [M8G] | 2.31 |
| ISKKFGDTSYSIRHSISMPAMRNS [M8T] | 2.33 |
| ISKKFGDVSYSIRHSISMPAMRNS [M8V] | 2.38 |
| ISKKFGDYSYSIRHSISMPAMRNS [M8Y] | 1.54 |
| ISKKFGDHSYSIRHSISMPAMRNS [M8H] | 2.33 |
| ISKKFGDRSYSIRHSISMPAMRNS [M8R] | 2.53 |
| ISKKFGDLSYSIRHSISMPAMRNS [M8L] | 2.27 |
| ISKKFGDASYSIRHSISMPAMRNS [M8A] | 2.87 |
| ISKKFGDCSYSIRHSISMPAMRNS [M8C] | 1.96 |
| ISKKFGDNSYSIRHSISMPAMRNS [M8N] | 2.88 |
| ISKKLGDMSYSIRHSISMPAMRNS [F5L] | 1.78 |
| ISKKNGDMSYSIRHSISMPAMRNS [F5N] | 2.48 |
| ISKKGGDMSYSIRHSISMPAMRNS [F5G] | 3.29 |
| ISKKVGDMSYSIRHSISMPAMRNS [F5V] | 2.51 |
| ISKKQGDMSYSIRHSISMPAMRNS [F5Q] | 2.78 |
| ISKKIGDMSYSIRHSISMPAMRNS [F5I] | 2.37 |
| ISKKYGDMSYSIRHSISMPAMRNS [F5Y] | 2.56 |
| ISKKKGDMSYSIRHSISMPAMRNS [F5K] | 2.44 |
| ISKKPGDMSYSIRHSISMPAMRNS [F5P] | 2.85 |
| ISKKEGDMSYSIRHSISMPAMRNS [F5E] | 3.06 |

| Variant | protein stability index |
| --- | --- |
| ISKKWGDMSYSIRHSISMPAMRNS [F5W] | 2.5 |
| ISKKTGDMSYSIRHSISMPAMRNS [F5T] | 2.24 |
| ISKKHGDMSYSIRHSISMPAMRNS [F5H] | 2.72 |
| ISKKRGDMSYSIRHSISMPAMRNS [F5R] | 2.45 |
| ISKKSGDMSYSIRHSISMPAMRNS [F5S] | 2.67 |
| ISKKMGDMSYSIRHSISMPAMRNS [F5M] | 2.29 |
| ISKKFGMMSYSIRHSISMPAMRNS [D7M] | 1.51 |
| ISKKFGLMSYSIRHSISMPAMRNS [D7L] | 1.78 |
| ISKKFGCMSYSIRHSISMPAMRNS [D7C] | 1.69 |
| ISKKFGKMSYSIRHSISMPAMRNS [D7K] | 2.58 |
| ISKKFGGMSYSIRHSISMPAMRNS [D7G] | 1.68 |
| ISKKFGRMSYSIRHSISMPAMRNS [D7R] | 2.21 |
| ISKKFGAMSYSIRHSISMPAMRNS [D7A] | 2.15 |
| ISKKFGYMSYSIRHSISMPAMRNS [D7Y] | 2.31 |
| ISKKFGFMSYSIRHSISMPAMRNS [D7F] | 1.7 |
| ISKKFGEMSYSIRHSISMPAMRNS [D7E] | 2.22 |
| ISKKFGQMSYSIRHSISMPAMRNS [D7Q] | 2.04 |
| ISKKFGHMSYSIRHSISMPAMRNS [D7H] | 1.77 |
| ISKKFGNMSYSIRHSISMPAMRNS [D7N] | 1.67 |
| ISKKFGSMSYSIRHSISMPAMRNS [D7S] | 2.34 |
| ISKKFGTMSYSIRHSISMPAMRNS [D7T] | 1.54 |
| ISKKFGPMSYSIRHSISMPAMRNS [D7P] | 2.14 |
| ISKKFGVMSYSIRHSISMPAMRNS [D7V] | 1.82 |
| ISKKFGIMSYSIRHSISMPAMRNS [D7I] | 3.23 |

| Variant | protein stability index |
| --- | --- |
| ISKKFGWMSYSIRHSISMPAMRNS [D7W] | 1.9 |
| ISKKFGDMLYSIRHSISMPAMRNS [S9L] | 1.42 |
| ISKKFGDMKYSIRHSISMPAMRNS [S9K] | 2.37 |
| ISKKFGDMPYSIRHSISMPAMRNS [S9P] | 2.03 |
| ISKKFGDMHYSIRHSISMPAMRNS [S9H] | 2.38 |
| ISKKFGDMMYSIRHSISMPAMRNS [S9M] | 1.51 |
| ISKKFGDMAYSIRHSISMPAMRNS [S9A] | 2.23 |
| ISKKFGDMCYSIRHSISMPAMRNS [S9C] | 1.88 |
| ISKKFGDMFYSIRHSISMPAMRNS [S9F] | 2 |
| ISKKFGDMYYSIRHSISMPAMRNS [S9Y] | 1.98 |
| ISKKFGDMRYSIRHSISMPAMRNS [S9R] | 2.22 |
| ISKKFGDMIYSIRHSISMPAMRNS [S9I] | 2.59 |
| ISKKFGDMTYSIRHSISMPAMRNS [S9T] | 2 |
| ISKKFGDMEYSIRHSISMPAMRNS [S9E] | 2.34 |
| ISKKFGDMQYSIRHSISMPAMRNS [S9Q] | 2.31 |
| ISKKFGDMNYSIRHSISMPAMRNS [S9N] | 2.36 |
| ISKKFGDMGYSIRHSISMPAMRNS [S9G] | 2.27 |
| ISKKFGDMVYSIRHSISMPAMRNS [S9V] | 2.03 |
| ISKKFGDMWYSIRHSISMPAMRNS [S9W] | 2.69 |
| ISKKFGDMDYSIRHSISMPAMRNS [S9D] | 2.36 |
| ISKKFGDMSDSIRHSISMPAMRNS [Y10D] | 2.98 |
| ISKKFGDMSNSIRHSISMPAMRNS [Y10N] | 2.73 |
